In the supplement of paper PMC12764529:
± gives the half width of the 95% confidence interval.

Legend:
[1] = folding stability dG unfold (combined trypsin and chymotrypsin); higher = more stable
How it was run: (§1)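 Designed mini-proteins with no cysteine and under 80 residues were kept only if AlphaFold2 dimer inter-PAE was above 15. In a PA-tagged cDNA display construct, they were digested with trypsin and chymotrypsin and then sequenced. K50 was inferred by Bayesian fitting of counts, and unfolding free energy was derived per protease or combined against a sequence-predicted unfolded-state K50 and a shared folded-state K50.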

[2] = folding stability dG unfold from trypsin proteolysis; higher = more stable
How it was run: as §1

[3] = folding stability dG unfold from chymotrypsin proteolysis; higher = more stable
How it was run: as §1

Row | Sequence | folding stability dG unfold [1] [kcal/mol] | folding stability dG unfold [2] [kcal/mol] | folding stability dG unfold [3] [kcal/mol]
1 | SMKITLEKGNYKIEIYKHPETGEIIAKVYDKNGKLVAVAHIKIEVEPDKDGKKIIKKIEIHVHILKEDPKSA [r9_262_TrMRF] | 3.02 ± 0.31 | 2.58 ± 0.22 | 3.77 ± 0.11
2 | SAMEIVIEFESPEEAEKAIKEYVEKKGLKAVEIKMEFEPKWVEEKTPTGVKVTKEKYVAKVTVVTSKELSAG [r14_773_JUSTAS] | 1.28 ± 0.32 | 0.457 ± 0.21 | 2.03 ± 0.095
3 | SAGGGSSSTTTSTTTTTSTSIEPLPGDREVVVTTTTTTTTTTTTTTPPDGSSTSTTTTTTTTTTTVTLASAG [r5_428_JUSTAS] | 1.93 ± 0.13 | 2.57 ± 0.23 | 1.45 ± 0.082
4 | SAGGSIEELAEELARRFAEENGAAEVRVEVEGLPDNTVLVRVYVRGPDGELLGVVDALIPVPEDELSAGGSA [r2_153_TrMRF] | 2.05 ± 0.085 | 1.94 ± 0.045 | 2.09 ± 0.062
5 | SAGGSAGGSAGKIDPKDIEKVEFEIDEESGKGKAFVILKNGEPAEIEFSSIEEAIKALLGSAGGSAGGSAGG [r11_339_TrMRF] | 1.37 ± 0.16 | 1.93 ± 0.099 | 0.981 ± 0.14
6 | SAGGSAGGSAGPNNMYPYEITIEVRDDGKPVKIKIEMYMSPNGEPMPPEQIKNFAKELAKSAGGSAGGSAGG [r17_373_TrROS] | 0.398 ± 0.23 | 0.382 ± 0.24 | 0.444 ± 0.17
7 | SAGGSAGGMTLLIRDPETNELVEVTVEEKDGKLTLTVRNKKTGETTEIEIPLDEEPIEIVLLEPSAGGSAGG [r6_465_TrROS_Hall] | 2.43 ± 0.12 | 2.09 ± 0.12 | 2.61 ± 0.021
8 | SAGGSAGGSAGDWIMFNFTYKDPGDPGKERTITILIPIPPPPPPEPKPVKDPNGNEGPVYSAGGSAGGSAGG [r11_419_TrROS] | 1.99 ± 0.18 | 1.69 ± 0.1 | 1.86 ± 0.08
9 | SAGGSAGGGSMGSVSVSETTTTSTEGSTTTTTTVHTTTVGGTTTTTTTTTTTSPTPGASSPATASAGGSAGG [r6_684_JUSTAS] | 1.85 ± 0.047 | 2.01 ± 0.065 | 1.71 ± 0.043
10 | SMKKIVLIYPESVSPEEAEKIAEEILKKLGLKKGSPVTILPLSEYESNPEMRARIEEAKKKGADIIIEVKSA [r9_1147_JUSTAS] | 2.78 ± 0.17 | 2.91 ± 0.15 | 2.8 ± 0.1
11 | SAGGSAGGSAGGLPDREILEVRVLNPEREETGLRVRVEVVLPDGPVTIELPAEEVKELASAGGSAGGSAGGS [r10_771_TrMRF] | 0.726 ± 0.071 | -0.0431 ± 0.068 | 1.03 ± 0.024
12 | SAGGSAGGSMLTIEKPMPGTTEEEALEYAEELKEKNPNYKIEVEIEKTEEGYLTVKIKLTKKESAGGSAGGS [r12_425_JUSTAS] | 0.972 ± 0.24 | 1.31 ± 0.12 | 0.879 ± 0.12
13 | SAGGSADPGKPIQIAIMIHIDPEPGRIEIPIYIMDDNRVRPVSIEFTPAGTLKIEVGNKEIEIPIKSAGGSA [r15_507_TrROS] | 2.24 ± 0.16 | 2.46 ± 0.17 | 2.01 ± 0.042
14 | SAGGSAGGSITIEIPGASSLEEAIEQAEVVVNEIVKKGYPGKPIKVTVILPGTGEAFTFEVPLESAGGSAGG [r6_237_TrMRF] | 2.19 ± 0.12 | 2.02 ± 0.11 | 2.4 ± 0.047
15 | SAGGWRLRIHIENPGNGRWITHTFPMPPGNIEKIADDMLEMLPGWKITGVEIVYEPGWITITARVKPKSAGG [r13_196_TrROS] | 2.74 ± 0.064 | 2.252 ± 0.016 | 2.9 ± 0.035
16 | SAGGSAGGSAGGKKIEIEFTVKILREPEPGELVPYEVKGKLEINIDPDGNLKIELKFEPGSAGGSAGGSAGG [r11_607_TrMRF] | 3.06 ± 0.15 | 2.81 ± 0.11 | 3.26 ± 0.073
17 | SAPGLRTYTIYDPSGVRRTFPPSWDVTILEYDPKTGTVTLKITKHNTDPGAPVSTETEKRKATFLRDVESAG [r14_927_JUSTAS] | 0.725 ± 0.061 | 0.575 ± 0.09 | 0.824 ± 0.12
18 | SAGGSAGGSAGVPVVVRTVTGPEGGYVVVEFPNLKKVVLLPFTDGKPRPVVFDTDEVLKLVSAGGSAGGSAG [r3_426_TrMRF] | 0.825 ± 0.093 | 1.04 ± 0.04 | 0.722 ± 0.083
19 | SAGGSSSSLIGEIKLPSNVTIKIERSSKGVRTAVVTFPETGKVVTLPLDPNVSIEEIIEKVKEIVEKKSAGG [r13_624_JUSTAS] | 1.71 ± 0.066 | 2.06 ± 0.093 | 1.29 ± 0.043
20 | SAGGSAGGSAGKVVVDFGKPALAEAFGVPLSEIENMSEEEALALAKPLVEEGVVDEVVLSSAGGSAGGSAGG [r11_80_TrMRF] | 0.88 ± 0.099 | 1.26 ± 0.048 | 0.524 ± 0.042
21 | SAGGSAGGSAGGGMIPVSTSETVVPGPSRLVRRTTTTYRDPVTGKLYTTSSTTVLPPAASAGGSAGGSAGGS [r10_190_JUSTAS] | 0.963 ± 0.045 | -0.396 ± 0.12 | 1.44 ± 0.064
